Paper PMC5123055

Experiments:
ribosome (S. cerevisiae) = assay: quantitative ribosome binding assay (ribosomes isolated from cell extract, immunoblot with αmyc); details: ribosomes isolated under low-salt conditions; parent: 45.4
[1] = target: ribosome (S. cerevisiae) (S. cerevisiae (endogenous in yeast extract)); assay: co-sedimentation; ribosome binding assay: cell extract (cycloheximide) spun through a low-salt sucrose cushion (25% sucrose, 20 mM Hepes/KOH pH 7.4, 120 mM potassium acetate, 2 mM magnesium acetate), 400,000 g, 4 °C, 25 min; immunoblot of supernatant and ribosomal pellet; strains: wild type, Δzuo1Δssz1, RAC-H128Q, Δssb1Δssb2 with Ssb1 variants

| Substance | response (% of total mycSsb1) (ribosome (S. cerevisiae)) | ribosome-binding, percent of the mycSsb1 control [1] [%] |
| --- | --- | --- |
| N-terminally myc-tagged Ssb1 (mycSsb1) (from UniProt P11484) K567E; R568E; K603D; R604D | 3 | – |
| N-terminally myc-tagged Ssb1 (mycSsb1) (from UniProt P11484) K567E; R568E; R596D; K597D; K603D; R604D | 1.9 | – |
| mycSsb1 D1 (R596D/K597D) (from UniProt P11484 1-613) (natural protein) | – | < 50 |
| mycSsb1 D2 (K603D/R604D) (from UniProt P11484 1-613) (natural protein) | – | < 50 |
| mycSsb1 LBC (K567E/R568E) (from UniProt P11484 1-613) (natural protein) | – | < 50 |
